Measured values as given in PMC8113585.

Target: SARS-CoV-2 nucleocapsid (N) protein, full-length;mAb nCoV396 (human IgG1) (SARS-CoV-2;Homo sapiens) (UniProt P0DTC9)
Assay: EMSA

How did the Kd turn out when AAGUUCGUUU [TRS RNA] was run?
The Kd was 15.1 µM.
